“And” between values parts separate entries of the source, which are not always exact repeats. Equal values may be shown once.
Target: T1, Human IL-23 (human, UniProt P29460 23-328)
T1 construct: also called huIL-23
T1 sequence 1: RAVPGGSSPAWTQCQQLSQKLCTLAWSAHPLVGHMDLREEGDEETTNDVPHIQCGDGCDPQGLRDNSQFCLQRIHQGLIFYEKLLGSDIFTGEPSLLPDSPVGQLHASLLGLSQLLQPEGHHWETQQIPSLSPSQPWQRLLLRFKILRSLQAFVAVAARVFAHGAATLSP
T1 sequence 2: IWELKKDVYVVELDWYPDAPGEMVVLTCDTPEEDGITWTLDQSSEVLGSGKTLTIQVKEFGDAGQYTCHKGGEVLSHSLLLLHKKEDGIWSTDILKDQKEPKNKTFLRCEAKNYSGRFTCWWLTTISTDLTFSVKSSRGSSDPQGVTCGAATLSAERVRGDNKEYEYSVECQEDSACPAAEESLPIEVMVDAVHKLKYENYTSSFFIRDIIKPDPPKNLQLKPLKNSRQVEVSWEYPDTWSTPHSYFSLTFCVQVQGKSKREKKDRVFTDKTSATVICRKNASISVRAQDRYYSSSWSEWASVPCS
Test: ELISA, human IL-23 immobilized on plate, HRP anti-IgG detection, four-parameter fit
Description: Re-dissolved crystalline anti-huIL-23p19 mAb 13B8-b was also compared to the original solution antibody by ELISA. Two different lots of each of solution and re-dissolved crystalline anti-huIL-23p19 mAb 13B8-b were tested for their ability to bind to IL-23. Human IL-23 was immobilized onto an ELISA plate, and serial dilutions of anti-huIL-23p19 mAb 13B8-b (solution or re-dissolved crystalline) were added to the wells. After the plates were washed, bound antibody was detected using an HRP-labeled anti-IgG antibody and a colorimetric substrate. Plates were read in a plate reader and the dose response curves were analyzed using a four-parameter logistic fit. At equilibrium, the EC50 of a saturation binding curve reflects the equilibrium binding dissociation constant (KD), where a higher value represents lower affinity, and a lower value represents higher affinity, of the antibody for the ligand. The potency of the test sample is assessed by comparing binding curves of the test samples to a reference material by the ratio of the EC50's. Potency is expressed as percent of reference material, in this case, selected to be lot #1 of the solution form of anti-huIL-23p19 mAb 13B8-b.

B1: humanized anti-human IL-23p19 monoclonal antibody 13B8-b (antibody, human IgG1, kappa, V domains shown)
VH: QVQLVQSGAEVKKPGASVKVSCKASGYIFITYWMTWVRQAPGQGLEWMGQIFPASGSADYNEKFEGRVTMTTDTSTSTAYMELRSLRSDDTAVYYCARGGGGFAYWGQGTLVTVSS
VL: DIQMTQSPSSLSASVGDRVTITCRTSENIYSYLAWYQQKPGKAPKLLIYNAKTLAEGVPSRFSGSGSGTDFTLTISSLQPEDFATYYCQHHYGIPFTFGQGTKVEIKR
notes: Full-length IgG1 kappa; It was tested as never-crystallized solution material (two lots) and as antibody re-dissolved from crystals (two lots); also called anti-huIL-23p19 mAb 13B8-b; hu13B8-b
- EC50: 0.071 nM and 0.106 nM and 0.073 nM and 0.116 nM

From US20150147337A1 (Merck Sharp & Dohme, published 2015)
